{"source": "patent US6602687B1", "about": "“DNA encoding human ciliary neurotrophic factor and method for producing the protein encoded thereby” (Regeneron Pharmaceuticals, Inc., priority 1989, dated 2003)", "key": {"[1]": {"tested_on": "Mediodorsal (MD) spinal cord neurons", "assay": "E14 rat mediodorsal spinal cord neuron cultures in defined medium", "assay_type": "cell-based", "source_text": "Sprague-Dawley rats (HSD) were used for all experiments. Pregnant rats were sacrificed by carbon dioxide asphyxiation, and the embryos were rapidly removed and placed in ice-cold Puck's saline G for further dissection.\nSpinal cords were removed aseptically from rat embryos on the 14th day of gestation. The spinal cord was severed caudal to the bulb, freed of sensory ganglia and meninges. The cord was then subdivided into ventral and mediodorsal segments for separate cultures. The cord tissues were minced into small pieces and mechanically dissociated by trituration through a Pasteur pipet in defined culture medium consisting of 50% basal medium Eagle (BME; Gibco) and 50% Ham's nutrient mixture F12 (Gibco) supplemented with glucose (33 mM), glutamine (2 mM, NaHCO3 (15 mM), HEPES (10 mM), insulin (25 μg/ml), transferrin (100 μg/ml) putrescine (60 μM), progesterone (20 nM), Na selenite (30 nM), penicillin G (0.5 μg/ml), streptomycin (0.5 μg/ml), and bovine serum albumin (2.5 μg/ml). Trituration was repeated twice and the supernatants were pooled and filtered through a nylon (Nitex, Tetko) filter (40 μm). Total cell number yielded was determined by hemocytometer counting in the presence of trypan blue. Dissociated ventral cells were then plated at a density of 0.5 million cells/35 mm dish coated with poly-D-lysine (10 μg/ml). Dissociated mediodorsal cells were plated at a density of 1.5 million/35 mm dish coated with poly-D-lysine (10 μg/ml), poly-L-ornithine (10 μg/ml), or poly-L-ornithine with laminin (5 μg/ml). Treatments to these cultures were added at the time of plating. Cultures were maintained at 37° C. in a 95% air/5% CO2 atmosphere at nearly 100% relative humidity. Culture medium was changed every three to four days."}, "[2]": {"tested_on": "E18-19 rat hippocampal neurons", "assay": "Counts of NSE-, GAD-, calbindin- and acetylcholinesterase-positive cells in hippocampal cultures", "assay_type": "cell-based", "description": "Hippocampi were dissected from E18-19 rat embryos of Sprague-Dawley rats, and collected in F10 medium. The tissues were minced, rinsed twice with F10 medium (Gibco) and trypsinized with 0.25% trypsin (Gibco) for 20 minutes at 37° C. Trypsin was inactivated by the addition of a serum-containing medium composed of minimal essential medium (MEM) supplemented with fetal calf serum (FCS, 10%), glutamine (2 mM), penicillin (25 U/ml) and streptomycin (25 ug/ml). Dissociated cells obtained by gentle trituration were collected and centrifuged at low speed (500 rpm) for 30 seconds. The centrifugation was repeated twice, and the cell pellets were then resuspended in serum-containing medium. The cells were then plated onto 6 mm wells or 35 mm dishes that were coated with polyornithine (10 ug/ml) and laminin (10 ug/ml). In most of the experiments, the cells were plated at a low density of approximately 71,000 cells/cm^2. Five to six hours following the plating of cells, medium was changed to a serum-free medium containing 1% N3 and penicillin-streptomycin (25 units/ml and 25 ug/ml, respectively), at which time CNTF was added. Medium was changed every three to four days, with re-addition of the factor.\nCells were fixed with 4% paraformaldehyde for 30 minutes at room temperature, washed with PBS. For GAD staining, cells were permeabilized by sequential rinsing with 50%, 70% and 50% ethanol. The cultures were blocked by sequential rinsing with PBS containing 5% normal rabbit serum for one hour, and incubated with sheep anti-GAD antibody 1440 at a 1:6000 dilution) overnight at 4° C. Following three rinses with PBS, cells were then incubated with biotinylated rabbit anti-sheep antibody at a 1:400 dilution for at least 90 minutes at room temperature. For GABA staining, cells were permeabiized with Triton X-100 (0.25%) in Tris-HCl (0.1M, pH 7.3), and blocked with 10% normal goat serum for 90 minutes, prior to incubation with rabbit anti-GABA antibody (1:5000) ovenight at 4° C. Following three rinses with PBS, cells were then incubated with biotinylated goat anti-rabbit antibody at a 1:200 dilution for at least 90 minutes at room temperature. GAG- or GABA imminoreactive cells were visualized by using the Vectastain ABC kit (Vector Labs).\nFollowing fixing with 4% paraformaldehyde, cells were blocked with 10% normal goat serum (NGS) in PBS containing 0.1% Triton X-100. The cells were then incubated with the primary antibody (rabbit anti-NSE, 1:5000) overnight at 4° C. The cells were then incubated with the secondary antibody (goat anti-rabit, 1:200 dilution) for at least 90 minutes at room temperature. NSE-immunopositive cells were visualized using the Vectastain ABC kit (Vector Labs).\nCells were rinsed twice with PBS, and fixed with 4% paraformaldehyde for 30 minutes at room temperature. […]"}, "[3]": {"settings": "recombinant rat CNTF 10 ng/ml, 8 days"}}}
{"molecule": "CNTF: ciliary neurotrophic factor; recombinant rat CNTF in Sections 10, 15, 17, purified rat sciatic nerve CNTF in Section 11; see endpoint conditions (protein, UniProt P20294 1-200, looked up) Ciliary neurotrophic factor: MAFAEQTPLTLHRRDLCSRSIWLARKIRSDLTALMESYVKHQGLNKNINLDSVDGVPVASTDRWSEMTEAERLQENLQAYRTFQGMLTKLLEDQRVHFTPTEGDFHQAIHTLMLQVSAFAYQLEELMVLLEQKIPENEADGMPATVGDGGLFEKKLWGLKVLQELSQWTVRSIHDLRVISSHQMGISALESHYGAKDKQM", "values": [{"measurement": "survival of MD neurons", "setting": "[1]; 20 ng recombinant rat CNTF in 2 μl E. coli extract per ml at plating, by 48 hours", "value": "increased survival"}, {"measurement": "μg protein dish", "setting": "[1]; CNTF 2 μl/ml (recombinant rat, E. coli extract), NGF 50 ng/ml at plating, day 7, Bradford", "value": 120, "unit": "μg protein dish"}, {"measurement": "protein/dish relative to untreated control and NGF-treated cultures", "setting": "[1]; recombinant rat CNTF in E. coli extract, day 7", "value": 6, "unit": "times"}, {"measurement": "increase in number of GAD-positive neurons", "setting": "[2]; [3]", "value": 2.3, "unit": "fold"}, {"measurement": "increase in number of NSE-positive neurons", "setting": "[2]; [3]", "value": 2.2, "unit": "fold"}, {"measurement": "increase in calbindin-immunopositive cells", "setting": "[2]; recombinant rat CNTF 10 ng/ml, low-density cultures", "value": 3, "unit": "fold"}, {"measurement": "increase in number of acetylcholinesterase positive cells versus controls", "setting": "[2]; recombinant rat CNTF, after 8 days in culture", "value": "approximately 17 fold"}]}
